± gives the standard deviation of the averaged measurements.
Legend:
[1] = tested on: Saccharomyces cerevisiae; experiment: protein stability index of tFT-peptide fusion (C-terminal peptide) (PSI (0-1 scale)); higher = more stable (slower turnover)
Description: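 MPS profiling in S. cerevisiae of the tFT-X12 degron library: putative degron peptides plus stable controls, 12 aa, fused to the C-terminus of a sfGFP-mCherry timer. Cells are FACS-sorted into 8 mCherry/sfGFP bins and deep-sequenced. PSI runs from 0 (unstable) to 1 (stable). Backgrounds are wild type, das1Δ and doa10Δ at 30 °C, and wild type, das1Δ, cdc34-1 and cdc53-1 at 37 °C; 2-3 technical replicates each.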

[2] = tested on: Saccharomyces cerevisiae; experiment: as above; details: genetic background: wild type; temperature: 30 C
[3] = genetic background: cdc34-1, temperature: 37 C
[4] = genetic background: cdc53-1, temperature: 37 C
[5] = genetic background: das1 deletion, temperature: 30 C
[6] = genetic background: das1 deletion, temperature: 37 C
[7] = genetic background: doa10 deletion, temperature: 30 C
[8] = genetic background: wild type, temperature: 30 C
[9] = genetic background: wild type, temperature: 37 C
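Note: PSI is a weighted mean of sequencing reads over stability bins, variants kept only with over 10 reads, mCherry proximal and sfGFP distal, peptide attached via GGGS linker.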

Sequence | protein stability index [1, 3] | protein stability index [1, 4] | protein stability index [1, 5] | protein stability index [1, 6] | protein stability index [1, 7] | protein stability index [1, 8] | protein stability index [1, 9] | protein stability index [2]
LCWLCIRWSRVV | 0.368 ± 0.044 | 0.543 ± 0.023 | 0.443 ± 0.017 | 0.589 ± 0.013 | 0.0721 ± 0.015 | 0.0746 ± 0.012 | 0.085 ± 0.02 | 0.152 ± 0.0052
YFFGWSVSLLIL | 0.133 ± 0.014 | 0.251 ± 0.039 | 0.192 ± 0.035 | 0.322 ± 0.0091 | 0.108 ± 0.015 | 0.124 ± 0.021 | 0.2397 ± 0.0019 | 0.184 ± 0.019
CSLPVLFLPYYL | 0.581 ± 0.025 | 0.5788 ± 0.0043 | 0.523 ± 0.022 | 0.625 ± 0.022 | 0.606 ± 0.014 | 0.492 ± 0.0051 | 0.572 ± 0.02 | 0.486 ± 0.14
DLDLLTKFSKEC | 0.702 ± 0.028 | 0.77 ± 0.013 | 0.628 ± 0.043 | 0.743 ± 0.028 | 0.4783 ± 0.0024 | 0.503 ± 0.025 | 0.656 ± 0.018 | 0.466 ± 0.03
FVRVFMASIIWC | 0.478 ± 0.032 | 0.487 ± 0.034 | 0.395 ± 0.029 | 0.508 ± 0.024 | 0.391 ± 0.012 | 0.376 ± 0.036 | 0.518 ± 0.013 | 0.452 ± 0.0082
LEALRFTFYHFF | 0.683 ± 0.038 | 0.7891 ± 0.0068 | 0.615 ± 0.016 | 0.788 ± 0.029 | 0.203 ± 0.0091 | 0.222 ± 0.018 | 0.41 ± 0.014 | 0.34252 ± 7.1e-06
LVACLGYAVYCL | 0.529 ± 0.042 | 0.557 ± 0.03 | 0.402 ± 0.024 | 0.573 ± 0.0087 | 0.369 ± 0.015 | 0.394 ± 0.017 | 0.5568 ± 0.0018 | 0.46 ± 0.012
GEAYVYLFVYSC | 0.4329 ± 0.0022 | 0.467 ± 0.0051 | 0.276 ± 0.036 | 0.541 ± 0.019 | 0.16 ± 0.012 | 0.173 ± 0.017 | 0.387 ± 0.0098 | 0.25 ± 0.0051
IAYCDNGFLVVV | 0.636 ± 0.037 | 0.676 ± 0.028 | 0.548 ± 0.023 | 0.695 ± 0.019 | 0.539 ± 0.013 | 0.563 ± 0.012 | 0.652 ± 0.012 | 0.521 ± 0.077
SVFFALFLRCTP | 0.26 ± 0.058 | 0.229 ± 0.055 | 0.34 ± 0.031 | 0.442 ± 0.005 | 0.43 ± 0.026 | 0.323 ± 0.024 | 0.405 ± 0.02 | 0.359 ± 0.05
VWVLLCKYVILL | 0.228 ± 0.034 | 0.3521 ± 0.0031 | 0.237 ± 0.036 | 0.457 ± 0.0046 | 0.139 ± 0.021 | 0.145 ± 0.014 | 0.268 ± 0.023 | 0.218 ± 0.0091
SLVFCYSLFVFI | 0.342 ± 0.08 | 0.464 ± 0.0058 | 0.381 ± 0.039 | 0.472 ± 0.012 | 0.368 ± 0.044 | 0.347 ± 0.04 | 0.444 ± 0.028 | 0.402 ± 0.017
VGVVGVRVLVVV | 0.0407 ± 0.0012 | 0.1 ± 0.018 | 0.166 ± 0.032 | 0.19025 ± 0.00017 | 0.142 ± 0.01 | 0.154 ± 0.024 | 0.17315 ± 8e-05 | 0.2026 ± 0.0015
GYVCVGLVYSVA | 0.372 ± 0.041 | 0.411 ± 0.017 | 0.267 ± 0.038 | 0.463 ± 0.0037 | 0.216 ± 0.0035 | 0.249 ± 0.038 | 0.433 ± 0.0093 | 0.337 ± 0.072
GFDVFWLWVVVA | 0.0676 ± 0.024 | 0.208 ± 0.017 | 0.192 ± 0.032 | 0.307 ± 0.022 | 0.0812 ± 0.011 | 0.103 ± 0.027 | 0.0966 ± 0.015 | 0.125 ± 0.019
LRRQAFRYRTLL | 0.458 ± 0.037 | 0.552 ± 0.031 | 0.569 ± 0.021 | 0.566 ± 0.006 | 0.1668 ± 0.0014 | 0.19 ± 0.0052 | 0.2454 ± 0.00035 | 0.221 ± 0.0096
IYVSVMLLRYRF | 0.41 ± 0.042 | 0.428 ± 0.018 | 0.342 ± 0.035 | 0.493 ± 0.0097 | 0.3455 ± 0.00077 | 0.331 ± 0.042 | 0.481 ± 0.03 | 0.465 ± 0.043
LVLPAFLLLLYP | 0.2108 ± 0.0018 | 0.183 ± 0.022 | 0.307 ± 0.034 | 0.4212 ± 0.0012 | 0.509 ± 0.023 | 0.309 ± 0.028 | 0.367 ± 0.0037 | 0.4134 ± 0.0013
FFFFLFRSIFLS | 0.146 ± 0.12 | 0.124 ± 0.013 | 0.293 ± 0.05 | 0.394 ± 0.094 | 0.179 ± 0.0022 | 0.118 ± 0.012 | 0.138 ± 0.011 | 0.152 ± 0.0068
FWFSFLLSGVCC | 0.24 ± 0.031 | 0.171 ± 0.013 | 0.272 ± 0.029 | 0.29 ± 0.0029 | 0.257 ± 0.012 | 0.268 ± 0.022 | 0.266 ± 0.016 | 0.347 ± 0.04

Source: the supplement of paper PMC10724198
